# Molecular target: human IL27 receptor (IL27RA/gp130 heterodimer) on human cells (human, UniProt Q6UWB1 33-636; P40189 23-918)
# Assay: cell-based or functional assay
# Chain of human IL27 receptor (IL27RA/gp130 heterodimer) on human cells (Q6UWB1 33-636 limits assumed, chain 1 of 2): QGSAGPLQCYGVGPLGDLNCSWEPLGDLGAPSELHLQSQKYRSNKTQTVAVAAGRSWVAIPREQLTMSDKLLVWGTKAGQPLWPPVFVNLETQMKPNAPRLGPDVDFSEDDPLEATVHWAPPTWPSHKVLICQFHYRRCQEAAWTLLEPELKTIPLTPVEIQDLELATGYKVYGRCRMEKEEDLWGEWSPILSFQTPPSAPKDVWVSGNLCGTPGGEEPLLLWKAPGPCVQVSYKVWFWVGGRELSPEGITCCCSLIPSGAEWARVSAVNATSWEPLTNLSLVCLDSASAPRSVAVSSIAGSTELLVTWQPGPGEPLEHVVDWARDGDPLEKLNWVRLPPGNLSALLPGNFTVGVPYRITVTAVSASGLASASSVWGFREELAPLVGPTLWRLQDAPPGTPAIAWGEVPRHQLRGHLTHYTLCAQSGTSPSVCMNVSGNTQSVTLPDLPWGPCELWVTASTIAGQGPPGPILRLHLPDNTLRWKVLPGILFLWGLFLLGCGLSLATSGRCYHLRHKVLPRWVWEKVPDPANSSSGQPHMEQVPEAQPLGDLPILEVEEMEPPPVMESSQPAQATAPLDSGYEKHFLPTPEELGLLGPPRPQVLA
# Chain of human IL27 receptor (IL27RA/gp130 heterodimer) on human cells (P40189 23-918 limits assumed, chain 2 of 2): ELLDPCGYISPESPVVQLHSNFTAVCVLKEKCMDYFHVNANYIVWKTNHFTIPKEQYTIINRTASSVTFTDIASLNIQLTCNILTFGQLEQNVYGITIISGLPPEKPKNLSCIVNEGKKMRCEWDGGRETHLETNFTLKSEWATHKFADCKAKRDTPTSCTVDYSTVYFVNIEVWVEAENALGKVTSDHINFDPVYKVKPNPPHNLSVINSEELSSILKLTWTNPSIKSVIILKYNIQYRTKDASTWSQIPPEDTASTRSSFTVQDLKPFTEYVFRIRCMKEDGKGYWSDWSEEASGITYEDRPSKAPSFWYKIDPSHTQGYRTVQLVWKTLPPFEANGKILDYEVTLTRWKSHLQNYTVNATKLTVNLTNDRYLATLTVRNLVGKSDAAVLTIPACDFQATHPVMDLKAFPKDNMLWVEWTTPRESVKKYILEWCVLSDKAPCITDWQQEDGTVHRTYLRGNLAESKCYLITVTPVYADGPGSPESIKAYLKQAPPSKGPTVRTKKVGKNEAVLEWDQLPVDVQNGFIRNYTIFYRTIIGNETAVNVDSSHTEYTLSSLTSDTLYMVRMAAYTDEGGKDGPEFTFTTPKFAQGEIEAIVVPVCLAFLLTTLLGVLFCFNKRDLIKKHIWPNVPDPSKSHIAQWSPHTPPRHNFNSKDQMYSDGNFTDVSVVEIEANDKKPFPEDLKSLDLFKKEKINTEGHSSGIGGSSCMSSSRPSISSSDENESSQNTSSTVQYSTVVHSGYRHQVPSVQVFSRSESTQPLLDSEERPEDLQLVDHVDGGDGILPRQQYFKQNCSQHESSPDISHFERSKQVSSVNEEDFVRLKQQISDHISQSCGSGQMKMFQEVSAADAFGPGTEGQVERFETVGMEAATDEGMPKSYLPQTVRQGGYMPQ
binder,measurement,value
"GBT-IL-27R-4933 (KiH-mFd format IL27RA/gp130 bispecific antibody) (bispecific antibody, human IgG1, kappa) chain 1: DIQMTQSPSSLSASVGDRVTITCRASQSVSSSYLAWYQQKPGKAPKLLIYGTESRATGVPSRFSGSGSGTDFTLTISSLQPEDFATYYCQQYGGYPTFGGGTKVEIKRTVAAPSVFIFPPSDEQLKSGTASVVCLLNNFYPREAKVQWKVDNALQSGNSQESVTEQDSKDSTYSLSSTLTLSKADYEKHKVYACEVTHQGLSSPVTKSFNRGECDKTHTCPPCPAPEAAGAPSVFLFPPKPKDTLMISRTPEVTCVVVDVSHEDPEVKFNWYVDGVEVHNAKTKPREEQYNSTYRVVSVLTVLHQDWLNGKEYKCKVSNKALPAPIEKTISKAKGQPREPQVYTLPPCREEMTKNQVSLSCAVKGFYPSDIAVEWESNGQPENNYKTTPPVLDSDGSFFLVSKLTVDKSRWQQGNVFSCSVMHEALHNHYTQKSLSLSPGK chain 2: QVQLVQSGAEVKKPGSSVKVSCKVSGGSISSYYWSWVRQAPGQGLEWIGRIYITGNTNYNPSLKDRVTMTVDTSTSTHYMELSSLRSEDTAVYYCAREGPKLGIFDYWGQGTLVTVSSASTKGPSVFPLAPSSKSTSGGTAALGCLVKDYFPEPVTVSWNSGALTSGVHTFPAVLQSSGLYSLSSVVTVPSSSLGTQTYICNVNHKPSNTKVDKKVEPKSC heavy: EVQLVESGGGLVQPGGSLRLSCAASGFTFEYFGLQWVRQAPGKGLEWIGYTSSGGNYEYYEETLKGRFTISRDNAKNSLYLQMNSLRAEDTAVYYCARTKTGDYWGQGTLVTVSSASTKGPSVFPLAPSSKSTSGGTAALGCLVKDYFPEPVTVSWNSGALTSGVHTFPAVLQSSGLYSLSSVVTVPSSSLGTQTYICNVNHKPSNTKVDKKVEPKSCDKTHTCPPCPAPEAAGAPSVFLFPPKPKDTLMISRTPEVTCVVVDVSHEDPEVKFNWYVDGVEVHNAKTKPREEQYNSTYRVVSVLTVLHQDWLNGKEYKCKVSNKALPAPIEKTISKAKGQPREPQVCTLPPSREEMTKNQVSLWCLVKGFYPSDIAVEWESNGQPENNYKTTPPVLDSDGSFFLYSKLTVDKSRWQQGNVFSCSVMHEALHNHYTQKSLSLSPGK light: DIQMTQSPSSLSASVGDRVTITCRASQDIGNSLTWYQQKPGKAPKRVIFGATGLAAGVPSRFSGSGSGTDFTLTISSLQPEDFATYYCLQSKQYPYTFGQGTKLEIKRTVAAPSVFIFPPSDEQLKSGTASVVCLLNNFYPREAKVQWKVDNALQSGNSQESVTEQDSKDSTYSLSSTLTLSKADYEKHKVYACEVTHQGLSSPVTKSFNRGEC",IDO1 in CD14+ monocytes EC50,0.015 nM
same,PD-L1 in CD14+ monocytes EC50 (human whole blood),0.006 nM
same,pSTAT1 in CD3+ T cells EC50 (human whole blood),0.233 nM

# From patent US20240052047A1 (Pfizer, published 2024)
